B1: spike (S) protein: N1232Q (protein)
parent chain: MKSLTYFWLFLPVLSTLSLPQDVTRCSANTNFRRFFSKFNVQAPAVVVLGGYLPIGENQGVNSTWYCAGQHPTASGVHGIFVSHIRGGHGFEIGISQEPFDPSGYQLYLHKATNGNTNATARLRICQFPSIKTLGPTANNDVTTGRNCLFNKAIPAHMSEHSVVGITWDNDRVTVFSDKIYYFYFKNDWSRVATKCYNSGGCAMQYVYEPTYYMLNVTSAGEDGISYQPCTANCIGYAANVFATEPNGHIPEGFSFNNWFLLSNDSTLVHGKVVSNQPLLVNCLLAIPKIYGLGQFFSFNQTIDGVCNGAAVQRAPEALRFNINDTSVILAEGSIVLHTALGTNFSFVCSNSSDPHLATFATPLGATQVPYYCFLKVDTYNSTVYKFLAILPPTVREIVITKYGDFYVNGFGYLHLGLLDAVTINFTGHGTDDDVSGFWTIASTNFVDALIEVQGTAIQRILYCDDPVSQLKCSQVSFDLDDGFYPISSRNLLSHEQPISFVTLPSFNDHSFVNITVSASFGGHSGANLIASDTTINGFSSFCVETRQFTISLFYNVTNSYGYVSKSQDSNCPFTLQSVNDYLSFSKFCVSTSLLASACTIDLFGYPEFGSGVKFTSLYFQFTKGELITGTPKPLVGVTDVSFMTLDVCTKYTIYGFKGEGIITLTNSSFLAGIYYTSDSGQLLAFKNVTSGAVYSVTPCSFSEQAAYVDDDIVGVISSLSNSTFNSTRELPGFFYHSNDGSNCTEPVLVYSNIGVCKSGSIGYVLSKSGQVKIAPTVTGNISIPTNFSMSIRTEYLQLYNTPVSVDCATYVCNGNSRCKQLLTQYIAACKTIESALQLSARLESAEVNSMLTISEEALQLATISSFNGDGYNFTNVLGVSVRDPASGRVVQKRSFIEDLLFNKVVTNGLGTVDEDYKRCSNGRSVADLVCAQYYSGVMVLPGVVDAEKLHMYSASLIGGMVLGGFTAAAALPFSYAVQARLNYLALQTDVLQRNQQLLAESFNSAIGDITSAFESVKEAISQTSKGLNTVAHALTKVQEVVNSQGAALTQLTVQLQHNFQAISSSIDDIYSRLDILSADVQVDRLITGRLSALNAFVAQTLTKYTEVQASRKLAQQKVNECVKSQSQRYGFCGGDGEHIFSLVQAAPQGLLFLHTVLVPGDFVDVIAIAGLCVNDEIALTLREPGLVLFTHELQNHTATEYFVSSRRMFEPRKPTVSDFVQIESCVVTYVNLTRDQLPDVIPDYIDVNKTLYEILASLPNRTGPSLPLDVFNATYLNLTGEIADLEQRSESLRNTTEELQSLIYNINNTLVDLEWLNRVETYIKWPWWVWLIIFIVLIFVVSLLVFCCISTGCCGCCGCCGACFAGCCRGPRLQPYEAFEKVHVQ
B2: spike (S) protein: N118Q (protein)
parent chain: B1 parent chain
B3: spike (S) protein: N216Q (protein)
parent chain: B1 parent chain
B4: spike (S) protein: N726Q (protein)
parent chain: B1 parent chain
B5: spike (S) protein: N1249Q (protein)
parent chain: B1 parent chain
B6: spike (S) protein: N688Q (protein)
parent chain: B1 parent chain
B7: spike (S) protein: N781Q (protein)
parent chain: B1 parent chain
B8: spike (S) protein: N351Q (protein)
parent chain: B1 parent chain
B9: spike (S) protein: N743Q (protein)
parent chain: B1 parent chain
B10: spike (S) protein: N381Q (protein)
parent chain: B1 parent chain
B11: spike (S) protein: N1261Q (protein)
parent chain: B1 parent chain
B12: spike (S) protein: N324Q (protein)
parent chain: B1 parent chain
B13: spike (S) protein: N1278Q (protein)
parent chain: B1 parent chain
B14: spike (S) protein: N62Q (protein)
parent chain: B1 parent chain
B15: spike (S) protein: N1196Q (protein)
parent chain: B1 parent chain
B16: spike (S) protein: N300Q (protein)
parent chain: B1 parent chain
B17: spike (S) protein: N344Q (protein)
parent chain: B1 parent chain

Test: RT-qPCR of intestinal tissues at 5 dpc
Conditions: glycan lost; control: rPEDV-WT

Protein | other: intestinal viral load
B1 | decreases
B2 | no change
B3 | no change
B4 | no change
B5 | decreases

Test: H&E staining of intestine at 5 dpc
Conditions: glycan lost; control: rPEDV-WT

Protein | other: intestinal histopathology
B1 | abolishes
B5 | abolishes

Test: RT-qPCR of rectal swabs
Conditions: glycan lost; control: rPEDV-WT

Protein | other: faecal viral shedding
B1 | decreases
B5 | decreases

Test: plaque morphology assay, ImageJ
Conditions: glycan lost; control: rPEDV-WT

Protein | other: plaque size
B1 | decreases
B2 | decreases
B3 | decreases
B4 | decreases
B5 | decreases

Test: anti-PEDV N immunofluorescence of intestine sections
Conditions: glycan lost; control: rPEDV-WT

Protein | other: intestinal viral antigen
B1 | abolishes
B5 | abolishes

Test: viral titre at 24 hpi, MOI 0.01
Conditions: glycan lost; control: rPEDV-WT

Protein | other: viral replication
B6 | no change
B7 | no change
B8 | no change
B9 | no change
B1 | decreases
B10 | no change
B11 | no change
B12 | no change
B2 | decreases
B3 | decreases
B13 | no change
B4 | decreases
B14 | no change
B15 | no change
B16 | no change
B5 | decreases
B17 | no change

Test: CHX chase, anti-Flag western blot, 293T
Conditions: glycan lost; control: WT S protein

Protein | degradation_or_half_life
B1 | no change
B2 | no change
B3 | no change
B4 | no change
B5 | no change

Test: viral titre in LLC-PK1 cells
Conditions: glycan lost; control: rPEDV-WT

Protein | other: viral replication
B1 | decreases
B2 | decreases
B3 | decreases
B4 | decreases
B5 | decreases

Test: BAC transfection of Vero cells; CPE, western blot
Conditions: glycan lost; control: rPEDV-WT

Protein | other: virus rescue (viability), other: viruses recovered/attempts
B6 | no change
B7 | no change
B8 | no change
B9 | no change
B1 | no change
B10 | no change
B11 | no change
B12 | no change
B2 | no change
B3 | no change
B13 | no change
B4 | no change
B14 | no change
B15 | no change
B16 | no change
B5 | no change
B17 | no change

Test: oral challenge; fecal scores, gross necropsy
Conditions: glycan lost; control: rPEDV-WT

Protein | other: virulence in animals
B1 | decreases
B2 | decreases
B3 | decreases
B4 | decreases
B5 | decreases

Test: 4 °C binding, RT-qPCR of PEDV N
Conditions: glycan lost; control: rPEDV-WT

Protein | other: viral attachment
B1 | no change
B2 | decreases
B5 | no change

Test: 37 °C 30 min, citrate wash, RT-qPCR
Conditions: glycan lost; control: rPEDV-WT

Protein | other: viral internalization
B1 | decreases
B2 | decreases
B3 | decreases

From article PMC12395675
